Results: patent JP2004500847A (dated 2004)
“And” between values parts separate entries of the source, which are not always exact repeats. Identical values can stand only once.

Legend:
[1] = biological target: T1, human MHC class II DR protein (DRA*0101/DRB1*0401) purified from Priess cells (human, UniProt P01903 26-254; P01911 30-266, limits assumed); experiment: SPR (Biacore), DR protein on the chip
T1 construct: mature; Native heterodimer isolated from cell lysate; Coated on ELISA plates or coupled to a BIAcore CM5 chip; also called HLA-DR protein; MHC-class II DRA*0101/DRB1*0401
T1 MHC II alpha: not shown
T1 MHC II beta: not shown

[2] = biological target: HLA-DR on the human B lymphoblastoid cell line LG-2 (human); experiment: flow cytometry on LG-2 cells, 35 ug Fab first; competitor 1-1C4 (2 ug)
[3] = biological target: HLA-DR on HLA-DR-positive cell lines (GRANTA-519, MHH-CALL4, Priess or LG2; allotype not stated) (human); experiment: cell-based or functional assay

Kd [1]: 346 nM
decrease of binding of the mouse antibody [2]: 50%
B1: MS-GPC-8-Fab (Fab, V domains shown)
VH: QVQLKESGPALVKPTQTLTLTCTFSGFSLSTSGVGVGWIRQPPGKALEWLALIDWDDDKYYSTSLKTRLTISKDTSKNQVVLTMTNMDPVDTATYYCARSPRYRGAFDYWGQGTLVTVSS
VL: DIVLTQPPSVSGAPGQRVTISCSGSSSNIGSNYVSWYQQLPGTAPKLLIYDNNQRPSGVPDRFSGSKSGTSASLAITGLQSEDEADYYCQSYDMPQAVFGGGTKLTVLG
EC50 of cell killing (Priess or LG2 cells), as concentration of the bivalent cross-linked (Fab) dimer [3]: < 60 nM
EC50 of cell killing (Priess or LG2 cells), as concentration of the monovalent fragment, cross-linked with anti-FLAG M2 [3]: < 120 nM
EC50 of cell killing (concentration of the bivalent cross-linked Fab dimer; cell line not named here) [3]: 20 nM and 40 nM
maximal killing of MHH-CALL 4 cells [3]: 65%
